Target: T1, hepatocyte growth factor beta chain (HGF β) containing a Cys604 to Ser mutation (human, UniProt P14210 495-728)
T1 construct: Expressed in insect cells (baculovirus secretion vector pAcGP67), Val495 placed immediately after the secretion signal; Numbering follows full length HGF starting with MWV as 1-3; also called HGF β-chain; HGF-beta
Experiment: complex formation in solution, size exclusion chromatography
Method: Elution fractions were assayed with SDS-PAGE, and those containing the complex were pooled. […] For this, Met, previously purified using Nickel chromatography as described above, was mixed with a combination of PNGase F (Roche) and Endoglycosidase A (Roche) at 1:100 enzyme:Met concentration and incubated at room temperature for 3 hours.

T1 sequence (P14210 other isoform, or with tags, fused parts or gaps limits assumed): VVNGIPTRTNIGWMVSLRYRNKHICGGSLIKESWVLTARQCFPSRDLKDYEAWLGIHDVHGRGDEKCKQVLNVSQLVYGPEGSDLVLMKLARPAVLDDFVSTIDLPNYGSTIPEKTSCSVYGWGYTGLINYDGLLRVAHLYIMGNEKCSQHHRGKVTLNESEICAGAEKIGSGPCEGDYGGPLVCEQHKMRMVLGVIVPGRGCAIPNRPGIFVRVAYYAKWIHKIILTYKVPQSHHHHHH

B1: extracellular fragment of the Met receptor containing residues 25 to 567 (Sema and PSI domain) with thrombin cleavable site and C-terminal (His)8-tag (receptor)
chain: ECKEALAKSEMNVNMKYQLPNFTAETPIQNVILHEHHIFLGATNYIYVLNEEDLQKVAEYKTGPVLEHPDCFPCQDCSSKANLSGGVWKDNINMALVVDTYYDDQLISCGSVNRGTCQRHVFPHNHTADIQSEVHCIFSPQIEEPSQCPDCVVSALGAKVLSSVKDRFINFFVGNTINSSYFPDHPLHSISVRRLKETKDGFMFLTDQSYIDVLPEFRDSYPIKYVHAFESNNFIYFLTVQRETLDAQTFHTRIIRFCSINSGLHSYMEMPLECILTELVPRGSTKKEVFNILQAAYVSKPGAQLARQIGASLNDDILFGVFAQSKPDSAEPMDRSAMCAFPIKYVNDFFNKIVNKNNVRCLQHFYGPNHEHCFNRTLLRNSSGCEARRDEYRTEFTTALQRVDLFMGQFSEVLLTSISTFIKGDLTIANLGTSEGRFMQVVVSRSGPSTPHVNFLLDSHPVSPEVIVEHTLNQNGYTLVITGKKITKIPLNGLGCRHFQSCSQCLSAPPFVQCGWCHDKCVRSEECLSGTWTQQICLPAIYKHHHHHHHH
notes: Expressed in insect cells (pAcGP67A); The complex was obtained with the unprocessed, single chain Met (not cut by thrombin); For better diffraction Met was deglycosylated with PNGase F and Endoglycosidase A before complex formation; also called Met fragment; Met Sema domain
binding result: binds
